Assay results from patent EP1165135B1 (City of Hope, dated 2004).

T1: rat FXR (farnesoid X-activated receptor), full-length (rat, UniProt Q62735 1-469)
T1 construct: mature; Full-length protein cloned into pCMX and translated in vitro for the mobility shift assays; also called bile acid nuclear receptor
T1 sequence (looked up): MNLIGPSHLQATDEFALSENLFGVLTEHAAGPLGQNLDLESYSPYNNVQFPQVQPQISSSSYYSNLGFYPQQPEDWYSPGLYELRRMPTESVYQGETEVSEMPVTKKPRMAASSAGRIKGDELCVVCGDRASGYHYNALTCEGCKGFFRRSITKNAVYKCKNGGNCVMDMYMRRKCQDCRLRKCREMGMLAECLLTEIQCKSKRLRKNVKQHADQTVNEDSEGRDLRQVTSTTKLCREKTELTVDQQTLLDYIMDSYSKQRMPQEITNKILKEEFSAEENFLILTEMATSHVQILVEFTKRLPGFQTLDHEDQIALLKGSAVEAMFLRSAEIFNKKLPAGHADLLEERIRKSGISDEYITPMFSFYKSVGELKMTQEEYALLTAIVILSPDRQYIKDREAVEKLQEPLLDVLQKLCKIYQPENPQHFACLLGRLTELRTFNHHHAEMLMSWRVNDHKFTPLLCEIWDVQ

T2: GST-GRIP1, the three receptor interaction domains of mouse GRIP1 (Arg 625 - Lys 765) fused to … (mouse, UniProt Q61026 625-765)
T2 construct: Expressed in E. coli and purified on glutathione-sepharose; also called CoA; not shown: glutathione-S-transferase (GST)
T2 sequence (looked up): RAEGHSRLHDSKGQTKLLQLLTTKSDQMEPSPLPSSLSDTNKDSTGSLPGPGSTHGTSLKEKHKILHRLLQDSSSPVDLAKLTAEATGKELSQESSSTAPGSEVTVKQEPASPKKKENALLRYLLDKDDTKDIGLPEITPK


Key:
[1] = target: T1, rat FXR (farnesoid X-activated …); test: electrophoretic mobility shift, in vitro translated FXR + RXR on EcRE probe
[2] = target: T2, GST-GRIP1, the three receptor …; test: phosphorimager quantitation of the mobility shift autoradiogram against LG268 concentration (Figure 4)
[3] = target: T2, GST-GRIP1, the three receptor …; test: electrophoretic mobility shift, DR1 probe, LG268 0-1000 nM
[4] = target: T1, rat FXR (farnesoid X-activated …); test: DNA binding as a heterodimer (Figure 5 and data not shown)

binding result [1]	fold higher ligand concentration required for recruitment of coactivator (against wild-type RXR) [2] [fold]	fold decrease in potency of coactivator recruitment compared to wild type RXR [3] [fold]	binding result [4]	Binder
binds				human RXRα (9-cis retinoic acid receptor), full-length, wild type (receptor, UniProt P19793 1-462, looked up, mature; also called wild-type RXR) MDTKHFLPLDFSTQVNSSLTSPTGRGSMAAPSLHPSLGPGIGSPGQLHSPISTLSSPINGMGPPFSVISSPMGPHSMSVPTTPTLGFSTGSPQLSSPMNPVSSSEDIKPPLGLNGVLKVPAHPSGNMASFTKHICAICGDRSSGKHYGVYSCEGCKGFFKRTVRKDLTYTCRDNKDCLIDKRQRNRCQYCRYQKCLAMGMKREAVQEERQRGKDRNENEVESTSSANEDMPVERILEAELAVEPKTETYVEANMGLNPSSPNDPVTNICQAADKQLFTLVEWAKRIPHFSELPLDDQVILLRAGWNELLIASFSHRSIAVKDGILLATGLHVHRNSAHSAGVGAIFDRVLTELVSKMRDMQMDKTELGCLRAIVLFNPDSKGLSNPAEVEALREKVYASLEAYCKHKYPEQPGRFAKLLLRLPALRSIGLKCLEHLFFFKLIGDTPIDTFLMEMLEAPHQMT
	~100	100	binds	RXRm, human RXRα with the point mutation Asp 322→Pro in the ligand binding domain (receptor, UniProt P19793 1-462, looked up, mature; Claim 9 prints Asp332→Pro; also called mutant RXR; RXR mutant) MDTKHFLPLDFSTQVNSSLTSPTGRGSMAAPSLHPSLGPGIGSPGQLHSPISTLSSPINGMGPPFSVISSPMGPHSMSVPTTPTLGFSTGSPQLSSPMNPVSSSEDIKPPLGLNGVLKVPAHPSGNMASFTKHICAICGDRSSGKHYGVYSCEGCKGFFKRTVRKDLTYTCRDNKDCLIDKRQRNRCQYCRYQKCLAMGMKREAVQEERQRGKDRNENEVESTSSANEDMPVERILEAELAVEPKTETYVEANMGLNPSSPNDPVTNICQAADKQLFTLVEWAKRIPHFSELPLDDQVILLRAGWNELLIASFSHRSIAVKPGILLATGLHVHRNSAHSAGVGAIFDRVLTELVSKMRDMQMDKTELGCLRAIVLFNPDSKGLSNPAEVEALREKVYASLEAYCKHKYPEQPGRFAKLLLRLPALRSIGLKCLEHLFFFKLIGDTPIDTFLMEMLEAPHQMT
